How the values were obtained:
[1] = target: Rel (Bacillus subtilis) (UniProt O54408); settings: cited from earlier work
[2] = target: Bacillus subtilis Rel N-terminal domain region (RelBs^NTD; residues 1 to 373) (Bacillus subtilis); experiment: ITC; DarB or DarB variants in the syringe at 200 μM, RelBs^NTD or variants in the cell at 15 μM; 25°C; 50 mM Hepes pH 7.5, 500 mM KCl, 500 mM NaCl, 10 mM MgCl2, 1 mM TCEP, 0.002% mellitic acid
[3] = target: RelBs^NTD Y279A (B. subtilis); experiment: ITC; DarB or DarB variant (200 uM) in the syringe titrated into RelBs^NTD or variant (15 uM) in the cell; 25 °C; 50 mM Hepes pH 7.5, 500 mM KCl, 500 mM NaCl, 10 mM MgCl2, 1 mM TCEP, 0.002% mellitic acid

Row | Kd [2] | Kd [3] | Substance | Kd [1]
1 |  |  | DarB (from UniProt O31698) | 650 nM
2 | 1400 nM | 4000 nM | Bacillus subtilis DarB (from UniProt O31698 1-147) (natural protein) | 

Reference: PMC9848473
